According to paper PMC3882142:

Target: bacteriophage P22 coat protein (CP), assembled as the P22 VLP capsid (bacteriophage P22) (UniProt P26747)
Assay: SEC-MALS

Chain of UniProt P26747 (P26747 whole entry): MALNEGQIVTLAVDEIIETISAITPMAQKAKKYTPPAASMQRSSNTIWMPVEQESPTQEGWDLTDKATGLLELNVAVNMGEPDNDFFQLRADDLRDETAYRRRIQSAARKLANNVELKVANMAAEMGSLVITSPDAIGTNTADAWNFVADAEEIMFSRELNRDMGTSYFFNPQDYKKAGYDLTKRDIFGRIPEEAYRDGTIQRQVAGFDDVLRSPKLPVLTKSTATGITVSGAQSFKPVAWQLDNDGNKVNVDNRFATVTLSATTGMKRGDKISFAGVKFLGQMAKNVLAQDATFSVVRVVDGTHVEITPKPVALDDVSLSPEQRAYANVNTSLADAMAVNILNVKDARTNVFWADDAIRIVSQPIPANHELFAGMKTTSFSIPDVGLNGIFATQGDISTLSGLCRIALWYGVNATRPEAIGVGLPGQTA

Substance | stoichiometry N (proteins per capsid)
GalA-SP fusion protein (alpha-galactosidase of Pyrococcus furiosus fused to the truncated scaffold protein of P22) | 183
HA_(head)-SP fusion protein (hemagglutinin head of influenza fused to the truncated scaffold protein of P22) | 286
